US20250327097A1, “ORGANISMS PRODUCING LESS CROTONIC ACID” (Global Bioenergies, priority 2021, published 2025)
Numbering of substitutions follows the chain as printed. Names may count otherwise.

B1: I283T-P284D-i284aP-N287P-S322T-Q365I-N388M-E421V-C430N-L432F-L434W-S436N-H461T-dG462-A463T (protein)
chain: MFLKSLREQINLLKRQGDLRIINRPVDSYLEAAAIIRRSTETKAPVPLMTNIKGYPGCSIVGGLAALSSNPEYPLSRVAMSLGLSTTASAQSIVQYLIDGLKKTPYLPVEIDSNSAPCKQNILRGEDASLAHFPIPQVHQHDGNRYVNTWGVFIVESPDGQWCNWSIQRVQYLNDRQMIALVFPSQHISDIWEEWVKIGKPMPYALVQGCEPIVPYIAGLPLLERNVNEAEYIGALYGKGIEVVKCETHDLRVPASSEVVIEGYFAITREGVEGPFGEFAGYTDNEPSLQPILSITAISWQDDPIWPVVAEGKPVDEYHTCTGIGDAAAIQNVLLTANLPVSFVWVPLYSACHLMIVSINRHWRITHPDLTSEQLTKKVGDVIHQTRMSIKLPKIVVLDDDVDPADTESLLWALATRIHPVRKRYFYESNIFPWLNCYSEEERHNRKGKRVIIDALLPENTGTISSFDYAYPDDIKQRVLMHWETDFSHD
B2: I283T-P284D-i284aP-N287P-L289R-S322T-N388M-E421V-C430N-L432F-L434W-S436N-H461T-dG462-A463T (protein)
chain: B1 chain with L289R, I365Q
B3: I283T-P284D-i284aP-N287P-S322T-N388M-E421V-C430N-L432F-L434W-S436N-C437G-H461T-dG462-A463T (protein)
chain: B1 chain with I365Q, C437G
B4: I283T-P284D-i284aP-E286A-N287P-S322T-N388M-E421V-C430N-L432F-L434W-S436N-H461T-dG462-A463T (protein)
chain: B1 chain with E286A, I365Q
B5: I283T-P284D-i284aP-N287P-S322T-N388M-E421V-C430N-L432F-L434W-S436N-G448C-H461T-dG462-A463T (protein)
chain: B1 chain with I365Q, G448C
B6: I283T-P284D-i284aP-N287P-S322T-Q385T-N388M-E421V-C430N-L432F-L434W-S436N-H461T-dG462-A463T (protein)
chain: B1 chain with I365Q, Q385T
B7: I283T-P284D-i284aP-E286S-N287P-S322T-N388M-E421V-C430N-L432F-L434W-S436N-H461T-dG462-A463T (protein)
chain: B1 chain with E286S, I365Q
B8: I283T-P284D-i284aP-N287P-S322T-N388M-E421V-C430N-L432F-L434W-S436N-H461T-dG462-A463T-Y469A (protein)
chain: B1 chain with I365Q, Y469A
B9: I283T-P284D-i284aP-N287P-S322T-Q385L-N388M-E421V-C430N-L432F-L434W-S436N-H461T-dG462-A463T (protein)
chain: B1 chain with I365Q, Q385L
B10: I283T-P284D-i284aP-N287P-S322T-N388M-E421V-C430N-L432F-L434W-S436N-G448E-H461T-dG462-A463T (protein)
chain: B1 chain with I365Q, G448E
B11: I283T-P284D-i284aP-N287P-S322T-H384L-N388M-E421V-C430N-L432F-L434W-S436N-H461T-dG462-A463T (protein)
chain: B1 chain with I365Q, H384L
B12: I283T-P284D-i284aP-N287P-S322T-N388M-E421V-C430N-L432F-L434W-S436N-G448V-H461T-dG462-A463T (protein)
chain: B1 chain with I365Q, G448V
B13: I283T-P284D-i284aP-N287P-S322T-N388M-E421V-C430N-L432F-L434W-S436N-H461T-dG462-A463T-D468L (protein)
chain: B1 chain with I365Q, D468L
B14: I283T-P284D-i284aP-N287P-S322T-N388M-E421V-C430N-I431M-L432F-L434W-S436N-H461T-dG462-A463T (protein)
chain: B1 chain with I365Q, I431M
B15: I283T-P284D-i284aP-N287P-S322T-Q385S-N388M-E421V-C430N-L432F-L434W-S436N-H461T-dG462-A463T (protein)
chain: B1 chain with I365Q, Q385S
B16: I283T-P284D-i284aP-N287P-S322T-H384G-N388M-E421V-C430N-L432F-L434W-S436N-H461T-dG462-A463T (protein)
chain: B1 chain with I365Q, H384G
B17: I283T-P284D-i284aP-N287P-S322T-N388M-E421V-C430N-L432F-L434W-S436N-H461T-dG462-A463T-Y469H (protein)
chain: B1 chain with I365Q, Y469H
B18: I283T-P284D-i284aP-N287P-S322T-N388M-E421V-C430N-L432F-L434W-S436N-C437F-H461T-dG462-A463T (protein)
chain: B1 chain with I365Q, C437F
B19: I283T-P284D-i284aP-N287P-S322T-Q385G-N388M-E421V-C430N-L432F-L434W-S436N-H461T-dG462-A463T (protein)
chain: B1 chain with I365Q, Q385G
B20: I283T-N285P-N287T-Q290E-S322T-N388M-S389H-K394R-C430A-i430aG-L432F-L434W-S436N-dG462 (protein)
chain: MFLKSLREQINLLKRQGDLRIINRPVDSYLEAAAIIRRSTETKAPVPLMTNIKGYPGCSIVGGLAALSSNPEYPLSRVAMSLGLSTTASAQSIVQYLIDGLKKTPYLPVEIDSNSAPCKQNILRGEDASLAHFPIPQVHQHDGNRYVNTWGVFIVESPDGQWCNWSIQRVQYLNDRQMIALVFPSQHISDIWEEWVKIGKPMPYALVQGCEPIVPYIAGLPLLERNVNEAEYIGALYGKGIEVVKCETHDLRVPASSEVVIEGYFAITREGVEGPFGEFAGYTPPETSLEPILSITAISWQDDPIWPVVAEGKPVDEYHTCTGIGDAAAIQNVLLTANLPVSFVWVPLYSACHLMIVSINRHWRQTHPDLTSEQLTKKVGDVIHQTRMHIKLPRIVVLDDDVDPADTESLLWALATRIHPERKRYFYESAIFPWLNCYSEEERHNRKGKRVIIDALLPENHGAISSFDYAYPDDIKQRVLMHWETDFSHD
B21: L222V-E224P-I283T-N285P-N287T-Q290E-S322T-N388M-K394R-C430A-i430aG-L432F-L434W-S436N-dG462 (protein)
chain: B20 chain with L222V, E224P, H389S
B22: I283T-N285P-N287T-Q290E-S322T-N388M-S389H-K394R-C430A-i430aG-L432F-L434W-S436N-I453L-dG462 (protein)
chain: B20 chain with I453L
B23: E224P-I283T-N285P-N287T-Q290E-S322T-N388M-K394R-C430A-i430aG-L432F-L434W-S436N-dG462 (protein)
chain: B20 chain with E224P, H389S
B24: I283T-N285P-N287T-Q290E-S322T-I330V-N388M-S389H-K394R-C430A-i430aG-L432F-L434W-S436N-V451S-dG462 (protein)
chain: B20 chain with I330V, V451S
B25: I283T-N285P-N287T-Q290E-S322T-I330V-N388M-S389H-K394R-C430A-i430aG-L432F-L434W-S436N-dG462 (protein)
chain: B20 chain with I330V
B26: E224A-I283T-N285P-N287T-Q290E-S322T-N388M-S389H-K394R-C430A-i430aG-L432F-L434W-S436N-dG462 (protein)
chain: B20 chain with E224A
B27: E224P-I283T-N285P-N287T-Q290E-S322T-N388M-S389H-K394R-C430A-i430aG-L432F-L434W-S436N-dG462 (protein)
chain: B20 chain with E224P
B28: H141C-I283T-N285P-N287T-Q290E-S322T-I330V-N388M-S389H-K394R-C430A-i430aG-L432F-L434W-S436N-dG462 (protein)
chain: B20 chain with H141C, I330V
B29: H141C-I283T-N285P-N287T-Q290E-S322T-N388M-S389H-K394R-C430A-i430aG-L432F-L434W-S436N-dG462 (protein)
chain: B20 chain with H141C

System: 3-methylcrotonic acid
Assay type: biochemical, Yersinia frederiksenii
Parameters: key: “+” representing a low increase in activity; “++++” representing a high increase in activity

Molecule | Activity relative to WT
B1 | ++++
B2 | ++++
B3 | ++++
B4 | ++++
B5 | ++++
B6 | ++++
B7 | ++++
B8 | ++++
B9 | ++++
B10 | ++++
B11 | ++++
B12 | ++++
B13 | ++++
B14 | ++++
B15 | ++++
B16 | ++++
B17 | ++++
B18 | ++++
B19 | ++++
B20 | ++++
B21 | ++++
B22 | ++++
B23 | ++++
B24 | ++++
B25 | ++++
B26 | ++++
B27 | ++++
B28 | ++++
B29 | ++++
